One block for each binder: values may come before it.
Key:
[1] = biological target: T1, human FAP expressed on transduced cells (SKRC52-hFAP, HT-1080-hFAP) (human, UniProt Q12884 1-760); assay: flow cytometry on HT-1080-hFAP and SKRC52-hFAP cells against wild-type cells
T1 construct: whole, on cells; Also the target in SKRC52-hFAP tumor cryosections and in tumors of tumor-bearing mice; also called cell-expressed human FAP
T1 sequence (looked up): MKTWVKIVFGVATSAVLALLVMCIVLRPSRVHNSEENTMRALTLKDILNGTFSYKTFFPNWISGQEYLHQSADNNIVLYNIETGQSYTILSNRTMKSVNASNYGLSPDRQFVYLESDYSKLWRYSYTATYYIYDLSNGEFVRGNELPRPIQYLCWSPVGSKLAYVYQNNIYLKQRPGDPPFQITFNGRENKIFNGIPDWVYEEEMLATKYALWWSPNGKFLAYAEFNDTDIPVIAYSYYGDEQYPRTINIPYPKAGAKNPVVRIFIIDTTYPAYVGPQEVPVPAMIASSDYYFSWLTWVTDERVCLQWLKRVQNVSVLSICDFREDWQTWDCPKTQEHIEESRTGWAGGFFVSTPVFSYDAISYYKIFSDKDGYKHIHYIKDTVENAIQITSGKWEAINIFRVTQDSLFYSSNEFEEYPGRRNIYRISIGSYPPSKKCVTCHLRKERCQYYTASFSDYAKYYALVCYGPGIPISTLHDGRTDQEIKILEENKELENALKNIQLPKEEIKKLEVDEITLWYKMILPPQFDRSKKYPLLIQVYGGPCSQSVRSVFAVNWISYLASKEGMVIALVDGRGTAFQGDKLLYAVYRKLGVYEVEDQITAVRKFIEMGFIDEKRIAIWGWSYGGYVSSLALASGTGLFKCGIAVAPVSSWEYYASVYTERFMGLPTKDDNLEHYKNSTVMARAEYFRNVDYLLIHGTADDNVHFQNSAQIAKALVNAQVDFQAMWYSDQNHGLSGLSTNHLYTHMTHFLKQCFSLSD
Procedure: The cell lines used were the human renal cell carcinoma cell line SKRC52 and the human fibrosarcoma cell line HT-1080.
Specifically, SKRC52-hFAP, SKRC52 wild-type (wt), HT-1080-hFAP and HT-1080 wt cells were detached from cell culture plates using Accutase, counted and suspended to a final concentration of 1×10⁶ cells/mL in FACS buffer (0.5% BSA, 2 mM EDTA in PBS). Cells were incubated with the 7NP2 or KSF antibodies in SIP format and binding detected using an […] (25 μg/ml), followed by staining with the anti-rat AlexaFluor488 antibody. Cells were analyzed on a CytoFLEX cytometer (Beckman Coulter). The raw data were processed using the FlowJo 10.4 software.

[2] = biological target: T2, human FAP-ECD (extracellular domain) recombinant fragment containing a C-terminal His6 tag (human, UniProt Q12884 26-760, randomly biotinylated with NHS ester-activated biotin (as used on the SA chip and Streptawell plates)); assay: SPR, BIAcore X100, biotinylated human FAP-ECD on SA chip (1500 RU), monomeric scFv injected
T2 construct: also called biotinylated human FAP-ECD; biotinylated human FAP
T2 sequence: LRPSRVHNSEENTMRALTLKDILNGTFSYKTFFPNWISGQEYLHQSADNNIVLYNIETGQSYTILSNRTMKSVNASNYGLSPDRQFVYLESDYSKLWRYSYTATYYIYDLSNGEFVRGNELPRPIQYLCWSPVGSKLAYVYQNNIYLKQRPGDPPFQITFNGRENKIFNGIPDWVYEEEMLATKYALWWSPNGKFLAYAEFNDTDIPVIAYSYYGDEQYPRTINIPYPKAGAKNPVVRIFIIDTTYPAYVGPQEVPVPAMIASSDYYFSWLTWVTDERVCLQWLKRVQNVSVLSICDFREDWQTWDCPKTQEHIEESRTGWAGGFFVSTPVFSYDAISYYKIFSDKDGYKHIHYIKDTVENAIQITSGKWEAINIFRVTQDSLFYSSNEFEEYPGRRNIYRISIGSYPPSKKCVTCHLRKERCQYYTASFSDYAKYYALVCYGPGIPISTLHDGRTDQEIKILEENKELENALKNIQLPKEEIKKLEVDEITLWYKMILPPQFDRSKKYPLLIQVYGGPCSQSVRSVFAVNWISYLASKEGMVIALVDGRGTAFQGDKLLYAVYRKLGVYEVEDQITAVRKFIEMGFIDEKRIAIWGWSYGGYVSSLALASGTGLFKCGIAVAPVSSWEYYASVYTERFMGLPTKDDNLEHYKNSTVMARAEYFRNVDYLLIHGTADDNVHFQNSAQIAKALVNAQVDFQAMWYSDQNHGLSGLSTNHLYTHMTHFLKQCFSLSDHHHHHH
Procedure: Affinity measurements of the C5 and 7NP2 scFv antibodies were performed by Surface Plasmon Resonance using BIAcore X100 instrument with a biotinylated human FAP-ECD coated SA chip. A final coating of 1500 RU was achieved.
Samples were injected at a concentration of […], 450 nM and 225 nM for the C5 scFv and of 1350 nM, 675 nM, 338 nM and 170 nM for the 7NP2 scFv. No regeneration of the SA chip was performed between each run, scFvs were left to detach from the antigen. KD measurements were assessed using the BIAevaluation 3.2 software.

binding result [1]: binds
B1: anti-FAP antibody 7NP2 in SIP (small immunoprotein) format (other)
chain: EVQLLESGGGLVQPGGSLRLSCAASGFTFSSYAMSWVRQAPGKGLEWVSAIGSVGGPTYYADSVKGRFTISRDNSKNTLYLQMNSLRAEDTAVYYCAKRLAWFDYWGQGTLVTVSSGGGGSGGGGSGGGGEIVLTQSPGTLSLSPGERATLSCRASQSVSSSYLAWYQQKPGQAPRLLIYGASSRATGIPDRFSGSGSGTDFTLTISRLEPEDFAVYYCQQSGKGPLTFGQGTKVEIKSGGSGGPRAAPEVYAFATPEWPGSRDKRTLACLIQNFMPEDISVQWLHNEVQLPDARHSTTQPRKTKGSGFFVFSRLEVTRAEWEQKDEFICRAVHEAASPSQTVQRAVSVNPESSRRGGC
notes: Homodimeric mini-immunoglobulin: 77 kDa under non-reducing and 38 kDa under reducing conditions; also called 7NP2 SIP; 7NP2(SIP)

Kd [2]: 10 nM
B2: affinity-matured anti-FAP antibody 7NP2 in scFv format (scFv)
scFv: EVQLLESGGGLVQPGGSLRLSCAASGFTFSSYAMSWVRQAPGKGLEWVSAIGSVGGPTYYADSVKGRFTISRDNSKNTLYLQMNSLRAEDTAVYYCAKRLAWFDYWGQGTLVTVSSGGGGSGGGGSGGGGEIVLTQSPGTLSLSPGERATLSCRASQSVSSSYLAWYQQKPGQAPRLLIYGASSRATGIPDRFSGSGSGTDFTLTISRLEPEDFAVYYCQQSGKGPLTFGQGTKVEIK
notes: The monomeric scFv was used in BIAcore; also called 7NP2 scFv; scFv(7NP2)

Source: patent publication US20240199762A1 (PHILOGEN S P A, published 2024)
